Reference: patent US20260109763A1 (DENALI THERAPEUTICS, published 2026)
Read-outs that look alike come from different tables or passages of the source.

Columns and labels:
[1] = target: T1, human PILRB on cells (human, UniProt Q9UKJ0 20-227); assay: flow cytometry on hPILRB-DAP12 OE HEK293 cells
T1 construct: Expressed on CHO-K1 cells, or together with DAP12 on HEK293 cells (hPILRB-DAP12 OE HEK293); also called hPILRB; hPILRB-DAP12
Procedure: Human PILRB-DAP12 OE HEK293 cells were stained with NucBlue Live cell stain for 30 mins at RT. […] Cell lines were run in duplicates to account for intra-variability, for a total of N=3.

[2] = target: T2, human PILRA G78 on cells (human, UniProt Q9UKJ1 20-303); assay: cell-based or functional assay
Target sequence in this assay (Q9UKJ1 20-303 R78G limits assumed): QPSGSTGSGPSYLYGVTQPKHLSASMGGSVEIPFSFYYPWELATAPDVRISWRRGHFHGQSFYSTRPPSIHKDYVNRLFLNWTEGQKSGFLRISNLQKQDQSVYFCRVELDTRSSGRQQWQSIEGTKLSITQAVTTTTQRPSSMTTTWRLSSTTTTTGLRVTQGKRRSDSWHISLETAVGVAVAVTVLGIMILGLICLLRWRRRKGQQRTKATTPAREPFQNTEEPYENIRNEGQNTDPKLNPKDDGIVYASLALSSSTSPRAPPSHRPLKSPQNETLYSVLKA

[3] = target: T3, human PILRB extracellular domain (recombinant) (human, UniProt Q9UKJ0 20-191); assay: SPR, Biacore 8K, recombinant ECD
T3 construct: also called hPILRB
T3 sequence (Q9UKJ0 20-191 limits assumed): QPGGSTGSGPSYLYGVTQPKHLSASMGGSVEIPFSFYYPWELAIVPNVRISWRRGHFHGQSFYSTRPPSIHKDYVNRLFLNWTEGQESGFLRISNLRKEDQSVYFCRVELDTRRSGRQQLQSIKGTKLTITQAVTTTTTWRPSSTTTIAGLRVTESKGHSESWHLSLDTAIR
Procedure: (§1) Antibodies were captured on Biacore™ Series S CM5 sensor chips immobilized with mouse anti-human Fab (human Fab capture kit from GE Healthcare) followed by injections of serial 3-fold dilutions of recombinant ECD reagents at a flow rate of 30 μL/min. Each sample was analyzed using a 3-minute association followed by a 10-minute dissociation. After each injection, the sensor chip was regenerated using a 5 0 mM glycine pH2.0 regeneration buffer. A 1:1 Languir model of simultaneous fitting of kₒₙ and koff was used for kinetics analysis.

[4] = target: T2, human PILRA G78 on cells; assay: flow cytometry on HEK293 cells expressing hPILRA G78
Target sequence in this assay (Q9UKJ1 20-303 R78G limits assumed): as the sequence (Q9UKJ1 20-303 R78G limits assumed) above
Procedure: Parental HEK293 cells were labeled with NucBlue Live ReadyProbes Reagent for 30 mins. […] Antibody binding to the cells was detected by FACS and median fluorescence intensity (MFI) was derived from data analysis performed with the FLOJO software (FIGS. 1A-1C).

[5] = target: T4, human PILRA G78 extracellular domain (recombinant hPILRA ECD) (human, UniProt Q9UKJ1 20-197); assay: SPR, Biacore 8K; antibody captured via anti-human Fab, recombinant ECD injected; 1:1 fit;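 note: CM5 sensor chip, ECD analyte in threefold dilution series at 30 µL/min, 3 min association and 10 min dissociation, kon and koff fitted simultaneously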
T4 construct: also called hPILRA G78
T4 sequence (Q9UKJ1 20-197 R78G limits assumed): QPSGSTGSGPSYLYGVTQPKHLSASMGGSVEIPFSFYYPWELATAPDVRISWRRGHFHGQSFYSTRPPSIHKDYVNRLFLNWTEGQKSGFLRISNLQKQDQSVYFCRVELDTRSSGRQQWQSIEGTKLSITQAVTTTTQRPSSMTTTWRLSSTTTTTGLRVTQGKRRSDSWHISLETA
Procedure: as §1

[6] = target: T5, human PILRA R78 extracellular domain (recombinant) (human, UniProt Q9UKJ1 20-197); assay: as above
T5 construct: also called hPILRA R78
Procedure: as §1

[7] = target: T6, cynomolgus monkey PILRA extracellular domain (recombinant) (cynomolgus monkey); assay: as above
T6 construct: also called cynoPILRA; Cyno PILRA
T6 sequence (chain, as listed by the source limits assumed): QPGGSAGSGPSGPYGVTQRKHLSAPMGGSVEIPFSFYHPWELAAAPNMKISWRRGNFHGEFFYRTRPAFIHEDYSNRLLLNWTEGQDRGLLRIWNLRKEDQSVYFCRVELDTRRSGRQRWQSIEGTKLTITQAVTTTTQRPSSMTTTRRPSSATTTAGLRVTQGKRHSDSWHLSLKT
Procedure: as §1

[8] = target: T7, human PILRA R78 on cells (human, UniProt Q9UKJ1 20-303); assay: flow cytometry on PILRA R78 expressing HEK293 cells (FIG. 1F); flow cytometry titration on HEK293 cells overexpressing PILRA R78
T7 construct: also called hPILRA R78; PILRA 78R
Procedure: (§2) PILRA G78 or R78 overexpressing HEK293 cells were stained with NucBlue Live cell stain for 30 mins at RT. […] Cell lines were run in duplicate to account for intra-variability, for a total of N=3. The same protocol was used for CHO-K1 cells expressing hPILRA G78.

[9] = target: T4, human PILRA G78 extracellular domain …; assay: SPR
[10] = target: T5, human PILRA R78 extracellular domain …; assay: SPR
Target sequence in this assay (Q9UKJ1 20-197 limits assumed): as the sequence (Q9UKJ1 20-197 R78G limits assumed) above, with G59R counted along it

[11] = target: T3, human PILRB extracellular domain …; assay: SPR
[12] = target: T6, cynomolgus monkey PILRA extracellular …; assay: SPR
[13] = target: T2, human PILRA G78 on cells; assay: cell-based or functional assay; remark: listed apart in the source
Target sequence in this assay (Q9UKJ1 20-303 R78G limits assumed): as the sequence (Q9UKJ1 20-303 R78G limits assumed) above

[14] = target: T7, human PILRA R78 on cells; assay: cell-based or functional assay
Target sequence in this assay (Q9UKJ1 20-303 limits assumed): as the sequence (Q9UKJ1 20-303 R78G limits assumed) above, with G59R counted along it

[15] = target: T2, human PILRA G78 on cells; assay: flow cytometry on HEK293 cells expressing hPILRA G78; remark: listed apart in the source
Target sequence in this assay (Q9UKJ1 20-303 R78G limits assumed): as the sequence (Q9UKJ1 20-303 R78G limits assumed) above

[16] = target: T4, human PILRA G78 extracellular domain …; assay: SPR, Biacore 8K; hPILRA ECD; antibody with wild-type Fc
Procedure: as §1
Characterization for binding affinities of the humanized antibodies to hPILRA ECD were measured by SPR using a Biacore 8K instrument (Table 7).

[17] = target: T7, human PILRA R78 on cells; assay: flow cytometry on PILRA R78 expressing HEK293 cells (FIG. 1F)
Procedure: as §2

[18] = target: T2, human PILRA G78 on cells; assay: flow cytometry (MFI), CHO-K1 cells expressing hPILRA G78, Alexa Fluor 647 anti-human IgG
Procedure: as §2

T1 sequence (Q9UKJ0 20-227 limits assumed): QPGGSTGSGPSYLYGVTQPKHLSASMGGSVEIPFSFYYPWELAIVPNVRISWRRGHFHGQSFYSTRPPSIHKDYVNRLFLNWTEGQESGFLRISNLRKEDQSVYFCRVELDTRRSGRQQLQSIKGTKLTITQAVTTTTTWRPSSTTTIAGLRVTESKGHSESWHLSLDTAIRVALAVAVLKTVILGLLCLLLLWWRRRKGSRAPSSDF

B1: PILRB binding positive control antibody (antibody, human IgG1, kappa, L234A L235A, V domains shown)
VH: QVQLQESGPGLVKPSGTLSLTCAVSGGSISSNHWWSWVRQPPGKGLEWIGEIYHYGTTDYNPSLQSRVTISVDKSKNQFSLKLTSVTAADTAVYFCARGLRDYYYYMDVWGKGTTVTVSS
VL: DIQMTQSPSSLSASVGDRVTITCRASQTISSYLNWYQQKPGKAPKLLIYAASSLQSGVPSRFSGSGFGTDFTLTISSLQPEDFATYYCQQSYSIPLTFGGGTKVEIKR
[1]
  EC50: 1.2 nM

B2: Anti-PILRA antibody clone 2 (antibody, human IgG1, kappa, L234A L235A, V domains shown)
VH: EVQLVESGGGLVQPGRSLRLSCAVSGFTFDDYAMHWVRQAPGKGLEWVSGFSWNSGSIGYPDSVKGRFTISRDNAKNSLYLQMNSLRAEDTAFYYCAKDKSISAAGRFDYWGQGTLVTVSS
VL: DIQMTQSPSSLSASVGDRVTITCQASRRINNYLNWYQQKPGKAPKLLIYDASNLETGVPSRFTGSGSGTDFTLTISSLQPEDIATYYCQQYDNLPLTFGGGTKVEIKR
notes: also called Ab; Clone 2; Ab.2
[2]
  pSTAT3 Y705 induction, EC50 (nM): 1.45 nM
  pSTAT3 Y705 induction, Fold Over Background: 16 fold
[3]
  binding result: no binding
[4]
  EC50: 12.5 nM
[5]
  Kd: 0.69 nM
[6]
  Kd: 270 nM
[7]
  Kd: 1.7 nM
[8]
  EC50: 5.1 nM

B3: Anti-PILRA antibody clone 35 (antibody, V domains shown)
VH: EVQLVQSGAEVKKPGASVKVSCKASGYTFTEYYMYWVRQAPGQGLELIGRIDPEDGGTDYVEKFKNRATLTADTSTSTAYLELSSLRSEDTAVYFCASTIRGTVFVYWGQGTLVTVSS
VL: DIQMTQSPSSLSASVGDRVTITCRPSEDIYNGLAWYQQKPGKSPKLLIYNANSLHTGVPSRFSGSGSGTDYTLTISSLQPEDFATYFCQQYYDYPLTFGQGTKVEIK
notes: Humanized; also called Ab.35
[9]
  Kd: 1.4 nM
[10]
  Kd: 25 nM
[11]
  Kd: 150 nM
[12]
  Kd: 5.3 nM
[13]
  pSTAT3 S727 induction, EC50 (nM): 23 nM
  pSTAT3 S727 induction, Fold Over Background: 28.9 fold
  pSTAT3 Y705 induction, EC50 (nM): 11.4 nM
  pSTAT3 Y705 induction, Fold Over Background: 35.5 fold
[14]
  pSTAT3 S727 induction, EC50 (nM): 10.6 nM
  pSTAT3 S727 induction, Fold Over Background: 30.1 fold
  pSTAT3 Y705 induction, EC50 (nM): 6.19 nM
  pSTAT3 Y705 induction, Fold Over Background: 41 fold
[15]
  EC50: 12.8 nM
[16]
  Kd: 1.71 nM
[17]
  EC50: 3.1 nM
[18]
  EC50 (read off the curve): ~10 nM
